# Reference: the supplement of paper PMC12667976
# ± gives the standard error.
# B1: library; numbered along this chain (parent)
# chain: MATDAALRRLLRLHRTEIAVAVDSAFPLLHALADHDVVPEDKFQETLHLKEKEGCPQAFHALLSWLLTQDSTAILDFWRVLFKDYNLERYGRLQPILDSFPKDVDLSQPRKGRKPPAVPKALVPPPRLPTKRKASEEARAAAPAALTPRGTASPGSQLKAKPPKKPESSAEQQRLPLGNGIQTMSASVQRAVAMSSGDVPGARGAVEGILIQQVFESGGSKKCIQVGGEFYTPSKFEDSGSGKNKARSSSGPKPLVRAKGAQGAAPGGGEARLGQQGSVPAPLALPSDPQLHQKNEDECAVCRDGGELICCDGCPRAFHLACLSPPLREIPSGTWRCSSCLQATVQEVQPRAEEPRPQEPPVETPLPPGLRSAGEEVRGPPGEPLAGMDTTLVYKHLPAPPSAAPLPGLDSSALHPLLCVGPEGQQNLAPGARCGVCGDGTDVLRCTHCAAAFHWRCHFPAGTSRPGTGLRCRSCSGDVTPAPVEGVLAPSPARLAPGPAKDDTASHEPALHRDDLESLLSEHTFDGILQWAIQSMARPAAPFPS
# Variants of: B1
# Assay: AIRE transcriptional activation functional score (insulin promoter-GFP; nonsense median 0, synonymous median 1) (normalised score); higher = higher AIRE activity (more reporter activation)
# Conditions: with insulin promoter-GFP reporter in HEK293
# Method: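 Deep mutational scan of full-length human AIRE (codon-optimized cDNA, DT-POPCode NNN libraries over three regions) integrated at a Bxb1 landing pad in HEK293 cells carrying an insulin core promoter-GFP reporter at a Flp-In site. Cells were sorted for the top 10% GFP about 14 days after transfection. Variant frequency log-ratios (select vs non-select, TileSeq) were rescaled so that the nonsense median is 0 and the synonymous median is 1, then averaged over biological replicates.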
row,Variant,AIRE transcriptional activation functional score
1,A413Y,1.25 ± 0.14
2,A31I,0.231 ± 0.82
3,P254S,0.995 ± 0.39
4,P254T,0.737 ± 0.27
5,L10P,0.292 ± 0.34
6,L10N,-0.218 ± 0.44
7,F453T,0.101 ± 0.19
8,P357E,1.05 ± 0.18
9,I181N,1.53 ± 0.38
10,G228N,1.51 ± 0.18
11,K395E,0.701 ± 0.21
12,S402Y,1.17 ± 0.2
13,P384L,1.14 ± 0.26
14,L158T,0.209 ± 0.54
15,F26A,-0.171 ± 0.064
16,F26Y,-0.359 ± 0.21
17,A496L,1.15 ± 0.18
18,D502Q,0.924 ± 0.15
19,K102M,0.607 ± 0.14
20,L62T,-0.152 ± 0.78
21,L62N,0.232 ± 0.31
22,R15Q,0.45 ± 0.067
23,T334R,1.06 ± 0.42
24,F43H,-1.42 ± 0.58

row,Variant,AIRE transcriptional activation functional score
1,K114W,1.32 ± 0.14
2,P126L,0.122 ± 0.14
3,P126M,0.141 ± 0.079
4,P126H,0.139 ± 0.23
5,P129S,0.685 ± 0.55
6,Q530N,1.52 ± 0.11
7,H30V,-0.417 ± 0.44
8,A493T,0.878 ± 0.31
9,A493N,1.04 ± 0.17
10,P481G,0.747 ± 0.45
11,G527H,0.494 ± 0.18
12,K133T,0.351 ± 0.38
13,S64V,-0.0585 ± 0.4
14,I330G,1.16 ± 0.2
15,I330N,0.89 ± 0.13
16,R465S,1.04 ± 0.19
17,P325F,1.01 ± 0.08
18,R92Y,-0.675 ± 0.61
19,R92E,-0.432 ± 0.48
20,Q57H,-0.168 ± 0.11
21,V104C,0.343 ± 0.48
22,V104I,0.904 ± 0.21
23,C457P,0.211 ± 0.21
24,A144E,0.655 ± 0.26

row,Variant,AIRE transcriptional activation functional score
1,E522R,-0.0906 ± 0.24
2,V192Q,0.811 ± 0.053
3,V192M,1.08 ± 0.062
4,G242Q,0.988 ± 0.47
5,D297C,0.929 ± 0.061
6,L406A,0.954 ± 0.24
7,L406G,1.08 ± 0.21
8,P381I,0.705 ± 0.26
9,P381R,1.25 ± 0.12
10,L11F,0.127 ± 0.061
11,P407C,1.24 ± 0.33
12,P407H,1.28 ± 0.3
13,G374V,1.07 ± 0.13
14,G374F,2.03 ± 0.12
15,D389P,0.951 ± 0.45
16,D389F,0.472 ± 0.1
17,S241K,0.301 ± 0.13
18,S241F,1.2 ± 0.074
19,S241C,1.11 ± 0.12
20,H507L,1.01 ± 0.2
21,E423K,0.795 ± 0.058
22,D439Y,1.35 ± 0.1
23,L29D,-0.402 ± 0.66
24,T390Q,0.868 ± 0.086

row,Variant,AIRE transcriptional activation functional score
1,T390E,-0.73 ± 0.36
2,G91A,0.266 ± 0.29
3,C419D,0.584 ± 0.27
4,S239N,1.4 ± 0.38
5,S239L,1.31 ± 0.34
6,T391V,1.16 ± 0.17
7,S71L,-0.359 ± 0.47
8,I211W,0.83 ± 0.065
9,P416A,0.819 ± 0.15
10,R433M,0.755 ± 0.12
11,L308Y,0.412 ± 0.079
12,S234D,-0.22 ± 0.2
13,S324R,0.621 ± 0.46
14,E40S,0.167 ± 0.41
15,E40H,-0.15 ± 0.22
16,Q425D,0.431 ± 0.85
17,T447Y,0.458 ± 0.2
18,K159V,1.06 ± 0.78
19,K501L,0.792 ± 0.26
20,L516R,0.262 ± 0.2
21,G435R,1.03 ± 0.13
22,T147Y,0.76 ± 0.21
23,T147F,1.49 ± 0.13
24,E375L,1.47 ± 0.35

row,Variant,AIRE transcriptional activation functional score
1,G424L,1.08 ± 0.16
2,G424P,1.24 ± 0.072
3,V487W,0.552 ± 0.24
4,G305I,-0.493 ± 0.32
5,S107C,1.12 ± 0.22
6,D105S,-0.0361 ± 0.14
7,D105K,0.591 ± 0.051
8,W335I,1.02 ± 0.12
9,W335T,1.26 ± 0.33
10,L28F,-0.285 ± 0.14
11,L28A,-0.115 ± 0.52
12,L28G,0.239 ± 0.38
13,D103R,0.339 ± 0.51
14,D103M,-0.761 ± 0.037
15,D103F,0.826 ± 0.13
16,D103L,0.32 ± 0.57
17,E167C,1.33 ± 0.22
18,S535Y,-1.02 ± 0.4
19,S535R,0.12 ± 0.24
20,S411T,0.867 ± 0.29
21,L128C,1.19 ± 0.3
22,A205E,0.647 ± 0.071
23,A205W,-0.461 ± 0.063
24,L49T,-0.364 ± 0.53

row,Variant,AIRE transcriptional activation functional score
1,L49M,0.566 ± 0.42
2,L175I,0.709 ± 0.34
3,I224C,0.709 ± 0.38
4,E136S,0.919 ± 0.38
5,P124N,0.804 ± 0.27
6,K235C,1.5 ± 0.14
7,W65R,-0.313 ± 0.32
8,H415N,1.22 ± 0.098
9,H415S,0.782 ± 0.24
10,P542M,1.3 ± 0.025
11,P542F,0.923 ± 0.081
12,L370S,1.32 ± 0.2
13,R538M,1.05 ± 0.096
14,H35L,-0.231 ± 0.32
15,T68K,0.868 ± 0.12
16,E485K,0.777 ± 0.1
17,A403T,1.14 ± 0.063
18,G204Y,0.0127 ± 0.5
19,E45S,-0.772 ± 0.39
20,L488A,1.27 ± 0.25
21,V118H,1.74 ± 0.26
22,P509E,1.16 ± 0.23
23,G269Y,0.676 ± 0.18
24,E298N,1.56 ± 0.079

row,Variant,AIRE transcriptional activation functional score
1,P101A,0.415 ± 0.2
2,R445L,0.998 ± 0.18
3,Y90T,0.376 ± 0.48
4,V22E,-1.03 ± 0.95
5,A5L,1 ± 0.51
6,V20H,-0.433 ± 0.067
7,V20N,-0.0183 ± 0.18
8,D304S,1.42 ± 0.18
9,Q94G,0.865 ± 0.84
10,Q94N,-0.193 ± 0.58
11,Q94C,-0.262 ± 0.46
12,S156M,0.855 ± 0.078
13,A140I,1.46 ± 0.72
14,A140N,0.714 ± 0.56
15,P430S,0.992 ± 0.36
16,K83W,0.152 ± 0.05
17,R356N,1.01 ± 0.054
18,R356F,1.15 ± 0.11
19,R12P,0.187 ± 0.17
20,V199L,0.982 ± 0.37
21,T232I,0.928 ± 0.34
22,Q108K,0.479 ± 0.44
23,Q108W,0.796 ± 0.087
